# Reference: patent US20090117124A1 (Pfizer, published 2009)
# Columns and labels:
# [1] = target: T1, cynomolgus monkey IgE (in cynomolgus serum, Harlan Sera-Lab Ltd) (cynomolgus monkey); test: capture ELISA, Test 2, Cyno 4
# T1 construct: Serum was the source of IgE; eight serum samples; also called cynomolgus IgE; Cyno 1 to Cyno 8 serum samples
# Method: (§1) Wells were washed once with 150 μL/well wash buffer (0.05% Tween-20, Sigma, Cat. No. P7949/TBS) then blocked with 150 μL/well 1% BSA (Sigma, Cat. No. A7030) in TBS for 2 hours at room temperature. Wells were washed twice with 150 μL wash buffer. 50 μL human (in-house donors) or cynomolgus serum (Harlan Sera-Lab Ltd, Loughborough) was added from neat to at least 1:16 dilution in 1% BSA/0.05% Tween-20/TBS diluent buffer. […] Wells were incubated for 2 hours at 25° C. before washing (3×150 μL wash buffer). […] Wells were incubated for 1 hour at 25° C. then washed (3×150 μL wash buffer). Streptavidin-HRP (Amersham Bioscience, Cat. No. RPN 1231) diluted 1:1000 in diluent buffer was added to all wells and incubated for 45 minutes at room temperature. Wells were washed (3×150 […] wash buffer). 50 μL OPD (Dako, Cat. No. S2045) was added to all wells and the color allowed to develop for 10 minutes before stopping the reaction with 50 μl 0.6M H₂SO₄ and the absorbance measured at 490 nm.
# [2] = target: T2, human IgE (Human myeloma, azide free, Serotec, Cat. No. PHP008X2) (human, UniProt P01854 1-546); test: inhibition of IgE binding to RBL-2H3 (FcεR1) cells
# T2 construct: mature; Bought full length human myeloma IgE; in the BIAcore kinetics Serotec PHP008X2 or Europa Bioproducts CP1035K was used; also called full length human IgE; human immunoglobulin E
# Method: RBL-2H3 (FcεR1) cells were cultured in MEM-Earles (Invitrogen Cat. No. 2109002) supplemented with 2 mM L-Glutamine (Sigma, Cat. No. G7513), 1 mg/mL Geneticin Liquid (Invitrogen Cat. No. 10131027) and 15% FBS (PAA Laboratories GmbH, Cat. No. A15-043). RBL-2H3 (FcεR1) cells were seeded into sterile 96-well plates (Costar, Fisher Scientific, Cat. No. TKY-521-090S) at 1×10⁵ cells/well and cultured overnight at 37° C., 5% CO₂ in a humidified atmosphere. The next day cells were washed 3× with 150 μL/well wash buffer (10% BSA, Sigma Cat. No A7030, in PBS, Sigma, Cat. No D8537). […] Cells were washed 3× with 150 μL/well wash buffer and then incubated with 50 μL/well streptavidin-HRP (Amersham Bioscience, Cat. No. RPN 1231) diluted 1:250, for 45 minutes. Cells were washed 3× with 150 μL/well wash buffer. 50 μL OPD (Dako, Cat. No. S2045) was added to all wells and the colour allowed to develop for 10 minutes before stopping the reaction with 50 μL 0.6M H₂SO₄ and the absorbance measured at 490 nm.
# [3] = target: T3, free IgE in human serum (healthy volunteers, in-house donors) (human, UniProt P01854-1 1-428); test: serum free IgE depletion ELISA; DIN 0649
# T3 construct: Kept apart from the bought myeloma IgE because it is native serum IgE of single donors; also called serum IgE
# Method: (§2) The next day ELISA plates were washed 1× with 300 μL/well wash buffer (0.05% Tween-20, Sigma, Cat. No. P7949/TBS) then blocked with 150 μL/well 1% BSA (Sigma, Cat. No. A7030) in TBS for 1 hour at room temperature.
# [4] = target: T3, free IgE in human serum (healthy …); test: serum free IgE depletion ELISA; DIN 0591
# Method: as §2
# [5] = target: T3, free IgE in human serum (healthy …); test: serum free IgE depletion ELISA; DIN 0347
# Method: as §2
# [6] = target: T1, cynomolgus monkey IgE (in cynomolgus …); test: capture ELISA, Test 2, Cyno 6
# Method: as §1
# [7] = target: T3, free IgE in human serum (healthy …); test: serum free IgE depletion ELISA; DIN 0155
# Method: as §2
# [8] = target: T3, free IgE in human serum (healthy …); test: serum free IgE depletion ELISA; DIN 0321 experiment 2
# Method: as §2
# [9] = target: T2, human IgE (Human myeloma, azide free, …); test: cell-based or functional assay
# [10] = target: T3, free IgE in human serum (healthy …); test: serum free IgE depletion ELISA; DIN 0623 experiment 2
# Method: as §2
# [11] = target: T3, free IgE in human serum (healthy …); test: capture ELISA, Test 2, human serum
# Method: as §1
# [12] = target: T1, cynomolgus monkey IgE (in cynomolgus …); test: capture ELISA, Test 2, Cyno 7
# Method: as §1
# [13] = target: T1, cynomolgus monkey IgE (in cynomolgus …); test: capture ELISA, Test 2, Cyno 5
# Method: as §1
# [14] = target: T1, cynomolgus monkey IgE (in cynomolgus …); test: capture ELISA, Test 2, Cyno 1
# Method: as §1
# [15] = target: T1, cynomolgus monkey IgE (in cynomolgus …); test: capture ELISA, Test 2, Cyno 2
# Method: as §1
# [16] = target: T2, human IgE (Human myeloma, azide free, …); test: BIAcore 3000, antibody immobilised, full length human IgE injected
# Method: An immobilization binding response of 50-600 RU was obtained using CM5 sensor chips (BIAcore™) and 10 mM sodium acetate, pH 5.0 as immobilization buffer. The reference flow cell was activated (with EDC-NHS) and blocked (with ethanolamine) but no protein was immobilized. […] A regeneration step was included after the dissociation phase; the conditions used for the various antibodies are given in Table 17 below.
# All sensorgrams were fitted locally using BIA evaluation software 4.1 (BIAcore™) and Scrubber software version 2.0 (BioLogic Software).
# T3 sequence (P01854 other isoform, or with tags, fused parts or gaps): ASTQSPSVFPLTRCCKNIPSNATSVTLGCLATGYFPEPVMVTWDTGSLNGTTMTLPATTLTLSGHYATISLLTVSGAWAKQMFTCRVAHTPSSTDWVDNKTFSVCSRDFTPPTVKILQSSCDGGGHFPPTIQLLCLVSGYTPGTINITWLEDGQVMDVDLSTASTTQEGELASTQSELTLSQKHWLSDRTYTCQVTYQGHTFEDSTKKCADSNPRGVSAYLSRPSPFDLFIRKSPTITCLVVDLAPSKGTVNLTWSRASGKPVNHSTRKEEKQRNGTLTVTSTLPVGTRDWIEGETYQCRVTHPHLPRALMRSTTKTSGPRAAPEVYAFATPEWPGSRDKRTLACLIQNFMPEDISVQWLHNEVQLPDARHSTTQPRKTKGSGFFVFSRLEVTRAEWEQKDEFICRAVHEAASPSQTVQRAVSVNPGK
# T2 sequence (P01854 whole entry): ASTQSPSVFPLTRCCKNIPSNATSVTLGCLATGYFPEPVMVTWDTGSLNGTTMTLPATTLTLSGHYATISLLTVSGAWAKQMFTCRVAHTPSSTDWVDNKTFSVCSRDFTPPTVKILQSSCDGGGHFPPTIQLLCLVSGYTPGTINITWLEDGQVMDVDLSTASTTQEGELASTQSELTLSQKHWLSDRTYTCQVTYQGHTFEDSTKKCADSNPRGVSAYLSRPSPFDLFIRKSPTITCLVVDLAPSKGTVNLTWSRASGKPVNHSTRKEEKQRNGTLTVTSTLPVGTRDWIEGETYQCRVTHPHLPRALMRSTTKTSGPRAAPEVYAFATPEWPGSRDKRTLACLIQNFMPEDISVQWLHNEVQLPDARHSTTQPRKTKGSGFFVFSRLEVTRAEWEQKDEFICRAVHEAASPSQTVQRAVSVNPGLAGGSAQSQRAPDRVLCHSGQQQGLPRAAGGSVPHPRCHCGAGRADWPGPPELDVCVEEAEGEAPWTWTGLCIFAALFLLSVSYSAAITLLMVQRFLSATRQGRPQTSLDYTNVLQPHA
Binder,IgE concentration detected [1],IC50 [2],IC25 ng/mL [3],IC25 ng/mL [4],IC25 ng/mL [5],IgE concentration detected [6],IC25 ng/mL [7],IC25 ng/mL [8],"IC50, inhibition of IgE-mediated degranulation (histamine release) of RBL-2H3 (FcεR1) cells; Batch 1 [9]","IC50, inhibition of IgE-mediated degranulation (histamine release) of RBL-2H3 (FcεR1) cells; Batch 2 [9]",IC25 ng/mL [10],IgE concentration detected [11],IgE concentration detected [12],IgE concentration detected [13],IgE concentration detected [14],IgE concentration detected [15],Kd [16],koff [16],kon [16],"IC50, inhibition of IgE-mediated degranulation (histamine release) of RBL-2H3 (FcεR1) cells [9]"
"5.948.1 (recombinant) (antibody, human IgG2, kappa, V domains shown, Human IgG2 kappa; leader omitted; Two batches were tested in some assays; also called recombinant 5.948.1; 5.948.1 - Batch 1 (762.8 µg/mL)) VH: QVQLVQSGAEVKKPGASVKVSCKASGYTFTSYDINWVRQATGQGLEWMGWMDPNSGNTGYAQKFQGRVTMTRNTSISTAYMELSSLRSEDTAVYYCARGHYDSDGYYSFSGMDVWGQGTTVTVSS VL: not shown",38 ng/mL,< 0.5 µg/mL,1.95 µg/mL,2.35 µg/mL,4.92 µg/mL,62 ng/mL,1.81 µg/mL,7.9 µg/mL,0.36 µg/mL,0.123 µg/mL,4.13 µg/mL,431 ng/mL,0 ng/mL,630 ng/mL,289 ng/mL,328 ng/mL,1320 pM,3.11e-05 s⁻¹,23600 M⁻¹ s⁻¹,–
"5.948.1 Hc-H100Y (antibody, human IgG2, kappa, V domains shown, Human IgG2 kappa; leader omitted; also called 5.948.1 (H100Y); 5.948.1 H100Y) VH: QVQLVQSGAEVKKPGASVKVSCKASGYTFTSYDINWVRQATGQGLEWMGWMDPNSGNTGYAQKFQGRVTMTRNTSISTAYMELSSLRSEDTAVYYCARGYYDSDGYYSFSGMDVWGQGTTVTVSS VL: not shown",25 ng/mL,< 0.5 µg/mL,0.39 µg/mL,0.55 µg/mL,1.33 µg/mL,39 ng/mL,0.34 µg/mL,2.55 µg/mL,–,–,0.76 µg/mL,408 ng/mL,0 ng/mL,420 ng/mL,170 ng/mL,199 ng/mL,159 pM,2.42e-05 s⁻¹,151000 M⁻¹ s⁻¹,0.0121 µg/mL
